B1: unnamed (protein)
chain: MRLIRRWPMRRLAIGFVLALVLSACDWRGPAPTQQSVVAARGPFAVGTIAVPSSAGFGGGTIYYPSDNAGPFAVISISPGFLGDQSSIAVWGPRLASNGFVAITINTTNGFILPDQRSQEQRQALTYVVNQGNNPSSPISGKVDPDRKGVAGHSMGGGATLISANADPTIRAAMPLAPWNGSASFPNVRVPTLIWACEADNIAPVASHASPMYNSIPSTTRKMYLSVDNGNHFCANSPDNSSQTVGKFGVSFFKKFLDTDTRYDPWVCGASRATAGTVLNEVRSTCPF
B2: unnamed (protein)
chain: MNTSILEKMAVGASALLFSFSAFSFTPDPTPDPDPDPGPGPCQSDCDFTRGPNPTSSYLEANSGPYSVSTISVSRSVSGFGGGTIHYPTNTTGTMGAVAIVPGFLAGESSISWWGPRLASHGFVVITIATNSGFDQPDSRETQLGRALDYVISQSNSGSSPISGMVDSTRVGAMGWSMGGGGTLRLASGTRLSAAIPLAPWHSGSNNFNQIDTPTLIIACENDSTAPVGSHASPFYNRIPTSTDKAYLEINNGSHSCANGGGSNGGLLGKYGVSWMKRFIDQDTRYSQFLCGPNHAANSAISEYRETCNY
B3: unnamed (protein)
chain: MKTSNTRTARTIPGDTMSLGLTRLAKAAVLAAALLMSAAAQAQSNPYQKGPDPTAASLEATAGSFAVSTTSVSSLSASGFGGGTIYYPTAAGSYGAIAVSPGFTATQSSIAWLGPRLASHGFVVITIDTNSTLDQPDSRATQLMAALNYVVSLSQTSSSPIYGKVDANRLGVAGHSMGGGGTLIAARDNPTLKAAVPLAPWNTTKNFSSVTVPTLIIGCENDTVAPVSSHAIPFYNSIPSSTDKAYMELNGADHFCPQSSSNNPIIGKYMVAWMKRFVDNDTRYSPFLCGAPHQADLSSSAVSDYRSNCPY
B4: unnamed (protein)
chain: MSCRQEPLGDKMRFFSQKCLATVAAVVATLASGAALAQTSNPYQRGPNPTTSSLEASRGSFAISQFRVSRPSGFGGGTVYYPTNAGGTVGAIAVVPGFLARQSTINWWGPRLASHGFVVITIDTNSTSDQPASRATQLMAALRQVVTLNGTRSSPIYNKVDTSRLAVMGWSMGGGGTLIAARDNPTLKAAVPFAPYNTGTNFSASAVPTLIIGCESDTVAPVGQHAEAFYTSMTRPEKAYLEINGGSHTCATSGNRNQAMIGKYGVSWMKRFVDNDTRFSDFLCGAPHAADLRNTSVISEYRETCPY
B5: unnamed (protein)
chain: MASQTNPYARGPNPTAASLEASAGPFTVRSFTVSRPSGYGAGTVYYPTNAGGTVGAIAIVPAYAARQSSIKWWGPRLASHGFVVITIDTNSTLDQPSSRSSQQMAALRQVASLNGTSSSPIYGKVDTARMGVMGWSMGGGGSLISAANNPSLKAAAPQAPWDSSTNFSSVTVPTLIFACENDSIAPVNSSALPIYDSMSRNAKQFLEINGGSHSCANSGNSNQALIGKKGVAWMKRFMDNDTRYSTFACENPNSTRVSDFRTANCSLEHHHHHH
B6: unnamed (protein)
chain: MLRFRVAASLPAEYLAVDNVVLEGTAQPPAPGGSGYQKGPEPTAALLEAGTGPFATASVTLSRSAASGFGGGTIHYPQGVAGPFAAVAVVPGYLAAESTIAWWGPRLASHGFVVITMATNNTLDLPASRSAQLTAALNQLKTLSATPGHAVFGLVDPNRLGVVGWSYGGGGTLLNAQANPQLKAAMALAPKTLLQGDFTGTTVPTLVVGCQADTTAAPAFWAIPFYNKVSASTGKAYLEVRGGSHFCVTSSTSDADKKALGKYGVAWLKRFMDEDTRYAPFLCGAPRQADVAGNAAISDYRDNCPY
B7: unnamed (protein)
chain: MRAGFMGVGAAALVALAGCSSTPSNEGTSKPSVTAPTGGSTVIGAAGVGATAGRPASAGTGASPAVTPPSTTVPSGTTKPPAAAGSSAMGAAGAAVSGMAGSSASAGTGAIAGSSAAAGSSAAAGSGAAAGSGAAPGGGFIREAAPTEDSLKKNGEYSVKSYTEKDGLVGGMEYGDAALGGDGSELYYPEGATAPFAAMAIVPGFTAQRSDVAPWGPFLASHGIVALVIDTNSTGDQPDVRSRALLDALESIKKENMRDGSPVKGKIDTSRLGVMGWSMGGGGTWITADGHPELKVAVSLCGWIIQSIGSKTTVPSLQLAVQDDQLAAGMSQPVYMAIPDKTPKMLVEWSSGGHWINNSPENVDHQVGRYGLPWIKVYLENDERYRQFFKTKPTGASDFQTNQ
B8: unnamed (protein)
chain: MKTSNSRQRRWAVGLGLLLLAAAAHAQTNPYQKGPDPTSASLNATAGPFAVATTSVSSSASGFGGGTIYYPTTAGSYAAIAISPGFTATQSSIAWLGRRLASHGFVVITINTNSTLDQPPSRATQLMAALRYLTNSSSSTVRSRVDANRLGVAGHSMGGGGTLIAARDNPTLKAAVPLTPWSTTKSFSTVRVPTLIVGAENDTVAPVSSHSIPFYNSLPSSLDKAYAELNGASHFAPNSTNTPIGRYSVAWVKRFMDNDTRYSPFLCGAPHTAYATSTVFSDYRSTCPY
B9: unnamed (protein)
chain: MPGYQGTQQNLQWLAPRLASWGFVVINVGTTTLSDDPASRGRQISAAGTQLLALGNATGNPVSGKTDGTLGAVGHSMGGGGVMAALRDDARFRAGVPTAPYYPNMNFSQVTDPTFFLTCQSDPVAHGNTYAAPWYTSMTQAEKLYIEVPGDHLCPMTGSGDKAKQGKWIVSFLSLWLRADTRFSPFLCGPVRDADKNNTSLVTRWMDTCQF
B10: unnamed (protein)
chain: MTVCKLRMFTAQKHPVTNKIFGGSSMSSRKQDLRLRQLLYCLLLSTALGGAVVHAQTAPATIAQEAFNNGFGIFTAAGSATANGQAVLAGTFGGTDGSITSSPISTQGFSNITVSFDRTTVGLDNGEAGVAEFSVAGGAFTAIESAQTASGRMSFALAASAANQAQLRLRFRVVASRANETYSVDNVLVQGVAAGAQPPPPDPQPTNNPFQRGPTPSAATLEAAQGPFAVATTTVPNPSGFGAGTIYFPTSTTEGPFAAVSIAPGFSERQANVNWWGPRLASNGFVVVVIDTNSTSDAPASRATQLVAALRQVVTLSGTSGSPVFNKVDGNRLGVMGHSLGGGGTLIAAQNNPTLKAAIPFAPFNNDTNFSSVVVPTLIIACENDNVAPVADHASPFYNSFAASLDKAFLEIAGGSHSCANSGNNNMPILGKYGVSWMKLFMDNDTRYSPFLCGAPHQADLSGTQISEYRESCPY
B11: unnamed (protein)
chain: MKTTISPIKGLAIAVAIAMATVAQPALSQTSPPTSASLNATSGPLSVSTASVLLPVGFGGGTIYYPTVAGQYGVIAISPGFTATQSSIAWLGRRIATHGFVVITMDTNTTLDQPDSRATQLMAALRYVLNSSGTAVRSRVDTTRLAVAGHSMGGGGSLIAARDNPTLKASYPMTPWNLSTNFSTVRVPTMIIGADGDTIAPVATHARPFYASLPSTTFKAYGELNNGTHFSPNATSTPIGRYAVAWMKRFVDGDARYSPFLCGAEHTSYATALVFERYNQNCPY
B12: unnamed (protein)
chain: MGGSMKLRSTAMRRRFVVLVAVVMLVVAACDWRGPAPTEQSLVAARGTFTVGTLAVPTSAGFGGGTIYYPGNHDGPFGVISISPGFLGNQSSIGEWGPRLASHGFVVITINTTNGFIQPPQRSTEQRQALSYVVAQGGVSSSPIFGIVDGARRGVAGHSMGGGASLISVQSDPSIKVAVPFAPWNSSANFSAVTSAVLIFACQNDSIAPVGSHASPMYNSIPASTDKSYVSVAGGDHFCANNPTGASGTAGKWALSYFKKFIDGDTRYDPWVCGASKPATGPVLNEVRSSCPF
B13: unnamed (protein)
chain: MTGSTTTGGRPAPPSPPSQSSTTCTTSAVASMPILTPSRVTSAHSVSSCSARNDAGGTCTALTPVVLWAVSAVTTAMPYPPAAATDFRSAWIPAPPPGSDPATDRTLGTCSGDETVGSVDGMGDIPSSVRTASGSTGVISAPGGRTPCREDTVAPVRETVSHRTRPCASPARLPMPRHGVRAEPVGAVIRQRGRTMQHSSIRSRAARRVTAALASLTVAVGLGAASGSVAQAADNPYERGPAPSESSIEATRGHYAVSERNVSRFVSGFGGGTIYYPTTTSDGTFGAVVVSPGYTGTESSIDWLGPRLASQGFVVLTMATNTIYDQPDSRARQLQAALDYLTGSSPVADRIDDDRLALMGHSMGGGGTLRAVDDNPDIKAAIPMTPWHTKKNWSTVTTPTLVFAAENDSVARHETHAEPFYNSFSDDLPKAYLELDGASHFAPNFSNTTIAKYSISWLKRFVDDDSR
B14: unnamed (protein)
chain: MKIDSIIKFLCTALLVTFSLGVYAGGGGGGDEPSNDGQLPAPDTCTSNCGYANGANPTLSSLQASQGQYSVGTVNVSSSVNGFGGGTIYYPTNLSGELAAIAIAPGFTNTQSAVQWWGPVLASRGFVVVTINTNGRFDFPSSRSRQLDSALNYLIYLGEQSSGAISGKVDKNRLATMGFSMGGGGALESASRNRLSATVPLAPWYSGSNPFNQINVPSMIMACENDGTAGVNTHASPFYNRIPGSTDKVYLELNNGSHNCATGQDSNYRTTISTYGVSWLKRFLDKDSRYNQFLCGPNHVANARISEFRDTCNF

Substrate: BHET
Details: 120 h

Row | Protein | plate clearing
1 | B1 | not clears the plate
2 | B2 | not clears the plate
3 | B3 | not clears the plate
4 | B4 | not clears the plate
5 | B5 | not clears the plate
6 | B6 | not clears the plate
7 | B7 | clears the plate (z > 3 vs empty vector)
8 | B8 | not clears the plate
9 | B9 | not clears the plate
10 | B10 | not clears the plate
11 | B11 | not clears the plate
12 | B12 | not clears the plate
13 | B13 | not clears the plate
14 | B14 | not clears the plate

Source: the PETadex activity labels
